Measured values from patent US20250334575A1 (UNIVERSITY OF VERMONT AND STATE AGRICULTURE COLLEGE, published 2025).
One block for each molecule: values may come before it.

Legend:
[1] = molecular target: FcγRIIa (low affinity immunoglobulin gamma Fc region receptor II-a) (human) (UniProt P12318); assay: co-immunoprecipitation with FcγRIIa from activated platelets, mass spectrometry of the excised band
[2] = molecular target: activated GP IIb-IIIa (human, UniProt P08514 32-1039; P05106 27-788); assay: cell-based or functional assay
[3] = molecular target: FcγRIIa (low affinity immunoglobulin gamma Fc region receptor II-a) (human) (UniProt P12318); assay: cell-based or functional assay

Sequence of FcγRIIa (low affinity immunoglobulin gamma Fc region receptor II-a) (human) (P12318 34-317 limits assumed, form in doubt): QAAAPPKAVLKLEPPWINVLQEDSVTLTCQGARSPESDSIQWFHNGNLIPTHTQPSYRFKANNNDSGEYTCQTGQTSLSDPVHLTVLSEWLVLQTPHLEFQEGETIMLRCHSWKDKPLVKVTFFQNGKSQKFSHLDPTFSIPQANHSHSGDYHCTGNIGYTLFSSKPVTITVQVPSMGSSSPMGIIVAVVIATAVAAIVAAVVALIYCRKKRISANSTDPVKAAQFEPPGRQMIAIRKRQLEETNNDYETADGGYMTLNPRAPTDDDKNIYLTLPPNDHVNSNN
Sequence of activated GP IIb-IIIa (P08514 32-1039, chain 1 of 2): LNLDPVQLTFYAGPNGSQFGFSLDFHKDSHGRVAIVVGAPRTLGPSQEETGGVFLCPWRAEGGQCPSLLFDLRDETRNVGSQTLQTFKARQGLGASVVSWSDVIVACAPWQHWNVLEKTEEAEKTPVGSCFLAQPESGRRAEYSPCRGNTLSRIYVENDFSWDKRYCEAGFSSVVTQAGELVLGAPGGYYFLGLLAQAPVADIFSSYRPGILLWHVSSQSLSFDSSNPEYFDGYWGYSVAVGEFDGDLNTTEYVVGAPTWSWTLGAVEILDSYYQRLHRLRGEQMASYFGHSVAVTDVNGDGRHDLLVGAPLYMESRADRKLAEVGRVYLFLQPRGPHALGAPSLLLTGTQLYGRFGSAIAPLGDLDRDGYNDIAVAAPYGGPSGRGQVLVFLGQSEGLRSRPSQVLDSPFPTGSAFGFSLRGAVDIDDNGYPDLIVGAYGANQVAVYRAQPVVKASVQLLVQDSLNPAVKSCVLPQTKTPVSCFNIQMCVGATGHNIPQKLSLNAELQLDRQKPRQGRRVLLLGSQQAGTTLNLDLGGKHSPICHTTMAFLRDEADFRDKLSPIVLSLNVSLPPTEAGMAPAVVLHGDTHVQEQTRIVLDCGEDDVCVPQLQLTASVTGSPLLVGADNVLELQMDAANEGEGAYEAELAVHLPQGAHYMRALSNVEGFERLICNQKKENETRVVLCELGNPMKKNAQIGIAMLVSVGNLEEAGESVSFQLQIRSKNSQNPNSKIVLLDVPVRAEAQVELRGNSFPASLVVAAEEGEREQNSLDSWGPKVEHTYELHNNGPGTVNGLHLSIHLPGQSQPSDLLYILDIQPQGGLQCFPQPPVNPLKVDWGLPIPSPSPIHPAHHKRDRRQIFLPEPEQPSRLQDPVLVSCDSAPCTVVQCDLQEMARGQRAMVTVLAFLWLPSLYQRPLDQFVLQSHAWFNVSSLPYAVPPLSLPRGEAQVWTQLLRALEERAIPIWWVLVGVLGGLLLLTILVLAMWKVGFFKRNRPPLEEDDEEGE
Sequence of activated GP IIb-IIIa (P05106 27-788, chain 2 of 2): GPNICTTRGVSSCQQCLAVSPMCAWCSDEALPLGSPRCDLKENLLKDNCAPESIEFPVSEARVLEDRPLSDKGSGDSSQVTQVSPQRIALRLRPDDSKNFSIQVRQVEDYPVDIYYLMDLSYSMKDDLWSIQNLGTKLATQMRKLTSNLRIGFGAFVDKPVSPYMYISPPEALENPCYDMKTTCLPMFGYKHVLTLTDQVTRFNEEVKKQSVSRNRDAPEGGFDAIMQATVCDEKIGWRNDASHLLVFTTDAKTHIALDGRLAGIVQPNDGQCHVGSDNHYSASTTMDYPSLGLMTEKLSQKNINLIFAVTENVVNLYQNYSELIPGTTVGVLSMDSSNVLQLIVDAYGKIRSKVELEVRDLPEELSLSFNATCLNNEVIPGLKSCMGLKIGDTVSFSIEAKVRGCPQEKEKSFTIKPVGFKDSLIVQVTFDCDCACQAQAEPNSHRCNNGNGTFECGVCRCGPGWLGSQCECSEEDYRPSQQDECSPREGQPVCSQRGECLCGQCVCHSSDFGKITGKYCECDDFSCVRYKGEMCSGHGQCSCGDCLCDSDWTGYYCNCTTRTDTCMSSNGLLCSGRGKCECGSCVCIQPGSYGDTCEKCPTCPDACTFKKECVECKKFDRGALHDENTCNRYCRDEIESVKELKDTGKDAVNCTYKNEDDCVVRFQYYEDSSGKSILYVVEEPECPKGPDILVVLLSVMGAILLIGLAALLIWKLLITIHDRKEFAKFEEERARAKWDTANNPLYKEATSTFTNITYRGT

Molecule: gelsolin (from UniProt P06396 1-731)
share of the protein content of the 90 kDa band co-immunoprecipitated with FcγRIIa [1]: 6%

Molecule: SRC kinase Lyn (from UniProt P07948 2-512) (enzyme)
share of the protein content of the 55 kDa band co-immunoprecipitated with FcγRIIa [1]: 1%

B1: fibrinogen (other, human)
chain 1: ADSGEGDFLAEGGGVRGPRVVERHQSACKDSDWPFCSDEDWNYKCPSGCRMKGLIDEVNQDFTNRINKLKNSLFEYQKNNKDSHSLTTNIMEILRGDFSSANNRDNTYNRVSEDLRSRIEVLKRKVIEKVQHIQLLQKNVRAQLVDMKRLEVDIDIKIRSCRGSCSRALAREVDLKDYEDQQKQLEQVIAKDLLPSRDRQHLPLIKMKPVPDLVPGNFKSQLQKVPPEWKALTDMPQMRMELERPGGNEITRGGSTSYGTGSETESPRNPSSAGSWNSGSSGPGSTGNRNPGSSGTGGTATWKPGSSGPGSTGSWNSGSSGTGSTGNQNPGSPRPGSTGTWNPGSSERGSAGHWTSESSVSGSTGQWHSESGSFRPDSPGSGNARPNNPDWGTFEEVSGNVSPGTRREYHTEKLVTSKGDKELRTGKEKVTSGSTTTTRRSCSKTVTKTVIGPDGHKEVTKEVVTSEDGSDCPEAMDLGTLSGIGTLDGFRHRHPDEAAFFDTASTGKTFPGFFSPMLGEFVSETESRGSESGIFTNTKESSSHHPGIAEFPSRGKSSSYSKQFTSSTSYNRGDSTFESKSYKMADEAGSEADHEGTHSTKRGHAKSRPVRGIHTSPLGKPSLSP
chain 2: QGVNDNEEGFFSARGHRPLDKKREEAPSLRPAPPPISGGGYRARPAKAAATQKKVERKAPDAGGCLHADPDLGVLCPTGCQLQEALLQQERPIRNSVDELNNNVEAVSQTSSSSFQYMYLLKDLWQKRQKQVKDNENVVNEYSSELEKHQLYIDETVNSNIPTNLRVLRSILENLRSKIQKLESDVSAQMEYCRTPCTVSCNIPVVSGKECEEIIRKGGETSEMYLIQPDSSVKPYRVYCDMNTENGGWTVIQNRQDGSVDFGRKWDPYKQGFGNVATNTDGKNYCGLPGEYWLGNDKISQLTRMGPTELLIEMEDWKGDKVKAHYGGFTVQNEANKYQISVNKYRGTAGNALMDGASQLMGENRTMTIHNGMFFSTYDRDNDGWLTSDPRKQCSKEDGGGWWYNRCHAANPNGRYYWGGQYTWDMAKHGTDDGVVWMNWKGSWYSMRKMSMKIRPFFPQQ
chain 3: YVATRDNCCILDERFGSYCPTTCGIADFLSTYQTKVDKDLQSLEDILHQVENKTSEVKQLIKAIQLTYNPDESSKPNMIDAATLKSRKMLEEIMKYEASILTHDSSIRYLQEIYNSNNQKIVNLKEKVAQLEAQCQEPCKDTVQIHDITGKDCQDIANKGAKQSGLYFIKPLKANQQFLVYCEIDGSGNGWTVFQKRLDGSVDFKKNWIQYKEGFGHLSPTGTTEFWLGNEKIHLISTQSAIPYALRVELEDWNGRTSTADYAMFKVGPEADKYRLTYAYFAGGDAGDAFDGFDFGDDPSDKFFTSHNGMQFSTWDNDNDKFEGNCAEQDGSGWWMNKCHAGHLNGVYYQGGTYSKASTPNGYDNGIIWATWKTRWYSMKKTTMKIIPFNRLTIGEGQQHHLGGAKQAGDV
fold induction of ADP-induced activation of platelets by added fibrinogen in the presence of tirofiban (0.5 µg/ml) [2]: 1.2 fold | fold induction of ADP-induced activation of platelets (surface expression of P-selectin) after addition of fibrinogen [3]: 1.5 fold | fold induction of ADP-induced activation of platelets by added fibrinogen after pretreatment with IV.3 (100 µg/ml) [3]: 0.9 fold | share of the protein content of the 55 kDa band co-immunoprecipitated with FcγRIIa [1]: 33% | share of the protein content of the 75 kDa band co-immunoprecipitated with FcγRIIa [1]: 24% | share of the protein content of the 90 kDa band co-immunoprecipitated with FcγRIIa [1]: 80%

B2: coagulation Factor XIII (enzyme, human, UniProt P00488 2-732, looked up)
chain: SETSRTAFGGRRAVPPNNSNAAEDDLPTVELQGVVPRGVNLQEFLNVTSVHLFKERWDTNKVDHHTDKYENNKLIVRRGQSFYVQIDFSRPYDPRRDLFRVEYVIGRYPQENKGTYIPVPIVSELQSGKWGAKIVMREDRSVRLSIQSSPKCIVGKFRMYVAVWTPYGVLRTSRNPETDTYILFNPWCEDDAVYLDNEKEREEYVLNDIGVIFYGEVNDIKTRSWSYGQFEDGILDTCLYVMDRAQMDLSGRGNPIKVSRVGSAMVNAKDDEGVLVGSWDNIYAYGVPPSAWTGSVDILLEYRSSENPVRYGQCWVFAGVFNTFLRCLGIPARIVTNYFSAHDNDANLQMDIFLEEDGNVNSKLTKDSVWNYHCWNEAWMTRPDLPVGFGGWQAVDSTPQENSDGMYRCGPASVQAIKHGHVCFQFDAPFVFAEVNSDLIYITAKKDGTHVVENVDATHIGKLIVTKQIGGDGMMDITDTYKFQEGQEEERLALETALMYGAKKPLNTEGVMKSRSNVDMDFEVENAVLGKDFKLSITFRNNSHNRYTITAYLSANITFYTGVPKAEFKKETFDVTLEPLSFKKEAVLIQAGEYMGQLLEQASLHFFVTARINETRDVLAKQKSTVLTIPEIIIKVRGTQVVGSDMTVTVEFTNPLKETLRNVWVHLDGPGVTRPMKKMFREIRPNSTVQWEEVCRPWVSGHRKLIASMSSDSLRHVYGELDVQIQRRPSM
fold induction of ADP-induced activation of platelets by added Factor XIII in the presence of tirofiban (0.5 µg/ml) [2]: 0.8 fold | share of the protein content of the 75 kDa band co-immunoprecipitated with FcγRIIa [1]: 38% | share of the protein content of the 90 kDa band co-immunoprecipitated with FcγRIIa [1]: 1%

Next, values leading:

share of the protein content of the 75 kDa band co-immunoprecipitated with FcγRIIa [1]: 3%
Molecule: nexilin (from UniProt Q0ZGT2 1-675)

share of the protein content of the 55 kDa band co-immunoprecipitated with FcγRIIa [1]: 3% | share of the protein content of the 75 kDa band co-immunoprecipitated with FcγRIIa [1]: 1%
Molecule: actin

share of the protein content of the 90 kDa band co-immunoprecipitated with FcγRIIa [1]: 1%
Molecule: filamin

share of the protein content of the 75 kDa band co-immunoprecipitated with FcγRIIa [1]: 4%
Molecule: coagulation Factor V (from UniProt P12259 29-2224)
